± gives the uncertainty stated by the source.
B1: Transcription elongation regulator 1-like protein, residues 448 to 504; numbered along this chain, Q5VWI1 (parent)
chain: LPLEERVTHFRDMLLERGVSAFSTWEKELHKIVFDPRYLLLNSEERKQIFEQFVKTR

Variants of: B1
Experiment: abundance fitness (aPCA) (normalised: wild type 0, dead -1); higher = more abundant; growth selection in yeast, the domain comes from the species named
Settings: Homo sapiens
With LPLEERATHFRDMLLERGVSAFSTWEKELHKIVFDPRYLLLNSEERKQIFEQFVKTR [V7A] the abundance fitness was 0.039 ± 0.16. For LPLEESVTHFRDMLLERGVSAFSTWEKELHKIVFDPRYLLLNSEERKQIFEQFVKTR [R6S], the abundance fitness was -0.832 ± 0.34. LPLEEMVTHFRDMLLERGVSAFSTWEKELHKIVFDPRYLLLNSEERKQIFEQFVKTR [R6M] showed an abundance fitness of -0.266 ± 0.47. Work on LPLEEVVTHFRDMLLERGVSAFSTWEKELHKIVFDPRYLLLNSEERKQIFEQFVKTR [R6V] yielded an abundance fitness of -0.701 ± 0.18. Work on LPLEEEVTHFRDMLLERGVSAFSTWEKELHKIVFDPRYLLLNSEERKQIFEQFVKTR [R6E] yielded an abundance fitness of -1.01 ± 0.44. For LPLEEWVTHFRDMLLERGVSAFSTWEKELHKIVFDPRYLLLNSEERKQIFEQFVKTR [R6W], the abundance fitness was -0.774 ± 0.38. LPLEEAVTHFRDMLLERGVSAFSTWEKELHKIVFDPRYLLLNSEERKQIFEQFVKTR [R6A] gave an abundance fitness of 0.062 ± 0.2. With LPLEEKVTHFRDMLLERGVSAFSTWEKELHKIVFDPRYLLLNSEERKQIFEQFVKTR [R6K] the abundance fitness was -0.485 ± 0.15. Work on LPLEENVTHFRDMLLERGVSAFSTWEKELHKIVFDPRYLLLNSEERKQIFEQFVKTR [R6N] yielded an abundance fitness of -0.485 ± 0.2. Work on LPLEEFVTHFRDMLLERGVSAFSTWEKELHKIVFDPRYLLLNSEERKQIFEQFVKTR [R6F] yielded an abundance fitness of -0.292 ± 0.41. LPLEEGVTHFRDMLLERGVSAFSTWEKELHKIVFDPRYLLLNSEERKQIFEQFVKTR [R6G] gave an abundance fitness of -0.894 ± 0.23. LPLEETVTHFRDMLLERGVSAFSTWEKELHKIVFDPRYLLLNSEERKQIFEQFVKTR [R6T] showed an abundance fitness of -0.772 ± 0.28. Variant LPLEEQVTHFRDMLLERGVSAFSTWEKELHKIVFDPRYLLLNSEERKQIFEQFVKTR [R6Q] has an abundance fitness of -0.744 ± 0.29. Variant LPWEERVTHFRDMLLERGVSAFSTWEKELHKIVFDPRYLLLNSEERKQIFEQFVKTR [L3W] has an abundance fitness of -0.116 ± 0.11. In the case of LPPEERVTHFRDMLLERGVSAFSTWEKELHKIVFDPRYLLLNSEERKQIFEQFVKTR [L3P], the abundance fitness is reported as -0.212 ± 0.4. LPVEERVTHFRDMLLERGVSAFSTWEKELHKIVFDPRYLLLNSEERKQIFEQFVKTR [L3V] showed an abundance fitness of 0.28 ± 0.11. Variant LPNEERVTHFRDMLLERGVSAFSTWEKELHKIVFDPRYLLLNSEERKQIFEQFVKTR [L3N] has an abundance fitness of -0.031 ± 0.21. LPREERVTHFRDMLLERGVSAFSTWEKELHKIVFDPRYLLLNSEERKQIFEQFVKTR [L3R] showed an abundance fitness of 0.304 ± 0.07. Variant LPQEERVTHFRDMLLERGVSAFSTWEKELHKIVFDPRYLLLNSEERKQIFEQFVKTR [L3Q] has an abundance fitness of 0.591 ± 0.16. With LPSEERVTHFRDMLLERGVSAFSTWEKELHKIVFDPRYLLLNSEERKQIFEQFVKTR [L3S] the abundance fitness was -0.704 ± 0.23. With LPYEERVTHFRDMLLERGVSAFSTWEKELHKIVFDPRYLLLNSEERKQIFEQFVKTR [L3Y] the abundance fitness was 0.138 ± 0.23. In the case of LPLLERVTHFRDMLLERGVSAFSTWEKELHKIVFDPRYLLLNSEERKQIFEQFVKTR [E4L], the abundance fitness is reported as -0.151 ± 0.2. In the case of LPLCERVTHFRDMLLERGVSAFSTWEKELHKIVFDPRYLLLNSEERKQIFEQFVKTR [E4C], the abundance fitness is reported as -0.458 ± 0.18. LPLKERVTHFRDMLLERGVSAFSTWEKELHKIVFDPRYLLLNSEERKQIFEQFVKTR [E4K] gave an abundance fitness of 0.132 ± 0.16. Variant LPLRERVTHFRDMLLERGVSAFSTWEKELHKIVFDPRYLLLNSEERKQIFEQFVKTR [E4R] has an abundance fitness of -0.867 ± 0.2. In the case of LPLNERVTHFRDMLLERGVSAFSTWEKELHKIVFDPRYLLLNSEERKQIFEQFVKTR [E4N], the abundance fitness is reported as 0.154 ± 0.4. Work on LPLTERVTHFRDMLLERGVSAFSTWEKELHKIVFDPRYLLLNSEERKQIFEQFVKTR [E4T] yielded an abundance fitness of -0.631 ± 0.23. LPLMERVTHFRDMLLERGVSAFSTWEKELHKIVFDPRYLLLNSEERKQIFEQFVKTR [E4M] gave an abundance fitness of -0.646 ± 0.45. Work on LPLSERVTHFRDMLLERGVSAFSTWEKELHKIVFDPRYLLLNSEERKQIFEQFVKTR [E4S] yielded an abundance fitness of 0.033 ± 0.21. LPLAERVTHFRDMLLERGVSAFSTWEKELHKIVFDPRYLLLNSEERKQIFEQFVKTR [E4A] gave an abundance fitness of -0.368 ± 0.33. Variant LPLPERVTHFRDMLLERGVSAFSTWEKELHKIVFDPRYLLLNSEERKQIFEQFVKTR [E4P] has an abundance fitness of -0.711 ± 0.29. Variant LPLEGRVTHFRDMLLERGVSAFSTWEKELHKIVFDPRYLLLNSEERKQIFEQFVKTR [E5G] has an abundance fitness of -0.195 ± 0.19. LPLERRVTHFRDMLLERGVSAFSTWEKELHKIVFDPRYLLLNSEERKQIFEQFVKTR [E5R] showed an abundance fitness of -0.01 ± 0.17. In the case of LPLETRVTHFRDMLLERGVSAFSTWEKELHKIVFDPRYLLLNSEERKQIFEQFVKTR [E5T], the abundance fitness is reported as -0.553 ± 0.46. For LPLEQRVTHFRDMLLERGVSAFSTWEKELHKIVFDPRYLLLNSEERKQIFEQFVKTR [E5Q], the abundance fitness was -0.357 ± 0.31. For LPLEPRVTHFRDMLLERGVSAFSTWEKELHKIVFDPRYLLLNSEERKQIFEQFVKTR [E5P], the abundance fitness was -0.697 ± 0.19. LPLEARVTHFRDMLLERGVSAFSTWEKELHKIVFDPRYLLLNSEERKQIFEQFVKTR [E5A] gave an abundance fitness of -0.73 ± 0.24. With LPLEKRVTHFRDMLLERGVSAFSTWEKELHKIVFDPRYLLLNSEERKQIFEQFVKTR [E5K] the abundance fitness was -0.535 ± 0.41. LPLELRVTHFRDMLLERGVSAFSTWEKELHKIVFDPRYLLLNSEERKQIFEQFVKTR [E5L] showed an abundance fitness of -0.565 ± 0.12. In the case of LPLECRVTHFRDMLLERGVSAFSTWEKELHKIVFDPRYLLLNSEERKQIFEQFVKTR [E5C], the abundance fitness is reported as -0.303 ± 0.12. For LPLEMRVTHFRDMLLERGVSAFSTWEKELHKIVFDPRYLLLNSEERKQIFEQFVKTR [E5M], the abundance fitness was -0.254 ± 0.45. With LPLEFRVTHFRDMLLERGVSAFSTWEKELHKIVFDPRYLLLNSEERKQIFEQFVKTR [E5F] the abundance fitness was -0.481 ± 0.35. Variant LPLEYRVTHFRDMLLERGVSAFSTWEKELHKIVFDPRYLLLNSEERKQIFEQFVKTR [E5Y] has an abundance fitness of -0.483 ± 0.24. LPLESRVTHFRDMLLERGVSAFSTWEKELHKIVFDPRYLLLNSEERKQIFEQFVKTR [E5S] gave an abundance fitness of -0.375 ± 0.19. Variant LPLEVRVTHFRDMLLERGVSAFSTWEKELHKIVFDPRYLLLNSEERKQIFEQFVKTR [E5V] has an abundance fitness of -0.416 ± 0.097. LPLEIRVTHFRDMLLERGVSAFSTWEKELHKIVFDPRYLLLNSEERKQIFEQFVKTR [E5I] showed an abundance fitness of -0.06 ± 0.16. With LPLEWRVTHFRDMLLERGVSAFSTWEKELHKIVFDPRYLLLNSEERKQIFEQFVKTR [E5W] the abundance fitness was -0.715 ± 0.39.

— the Human Domainome abundance scans (Beltran et al. 2025)
